Among the data in patent publication US20220175942A1 (published 2022) are Kd values, retold here.

Read-outs that look alike come from different tables or passages of the source.

T1: CCL5_HUMAN (human, UniProt P13501 24-91)
T1 chain: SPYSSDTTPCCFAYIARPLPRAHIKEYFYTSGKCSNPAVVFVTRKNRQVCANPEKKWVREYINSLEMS

T2: CCL17_HUMAN (human, UniProt Q92583 24-94)
T2 chain: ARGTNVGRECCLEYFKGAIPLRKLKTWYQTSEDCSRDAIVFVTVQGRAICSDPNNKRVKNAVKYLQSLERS

T3: CCL19_HUMAN (human, UniProt Q99731 22-98)
T3 chain: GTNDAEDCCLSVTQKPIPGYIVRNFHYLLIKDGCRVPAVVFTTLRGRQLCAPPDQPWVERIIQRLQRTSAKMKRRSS

T4: CCL4 (human, UniProt P13236 24-92)
T4 chain: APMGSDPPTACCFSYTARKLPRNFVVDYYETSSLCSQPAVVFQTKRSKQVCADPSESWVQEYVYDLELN

T5: CCL15_HUMAN (human, UniProt Q16663 22-113)
T5 chain: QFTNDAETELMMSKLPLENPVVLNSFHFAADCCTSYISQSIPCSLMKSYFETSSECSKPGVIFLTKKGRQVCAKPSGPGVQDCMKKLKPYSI

T6: CCL8_HUMAN (human, UniProt P80075 24-99)
T6 chain: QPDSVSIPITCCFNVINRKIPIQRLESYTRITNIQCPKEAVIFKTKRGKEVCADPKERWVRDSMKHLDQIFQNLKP

T7: CCL1_HUMAN (human, UniProt P22362 24-96)
T7 chain: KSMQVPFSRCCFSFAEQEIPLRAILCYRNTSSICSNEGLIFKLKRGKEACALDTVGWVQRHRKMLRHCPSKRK

B1: P991_AMBCA (other)
chain: ENGEGTTQPDYDNSTDYYNYEDFKCTCPAPHLNNTNGTVMKPIGCYYTCNVTRCTAPDTYPCYNLTEHQAKNLTTSPTTLCAVGNCDHGICVPNGTKELCFKAPNLEE
B2: CCL22_HUMAN (ligand)
chain: GPYGANMEDSVCCRDYVRYRLPLRVVKHFYWTSDSCPRPGVVLLTFRDKEICADPRVPWVKMILNKLSQ
B3: P1243_AMBAM (other)
chain: RNHTEDNSTEYYDYEEARCACPARHLNNTNGTVLKLLGCHYFCNGTLCTAPDGYPCYNLTAQQVRTLTTYPNTSCAVGVCMKGTCVKNGTMEQCFKTP
B4: CCL4_HUMAN (ligand)
chain: T4 chain
B5: P943_IXORI (other)
chain: RSKQPTASQSSKNSIKAEFCDTNCTQGTNGAWSGCSEGCFCVHVGNNTKGRCMKLSSDYDYTTQ
B6: P985_AMBPA (other)
chain: DEESEELGASTDVDYEELDANCTCPAPALTSTRNNKHYPLGCIYNCSSYNCTIPDGTPCYVLTLGEVKEHLQIGSTVPNCTCGLCRNGTCVSNGTVEECFAVEEIEET
B7: CCL18_HUMAN (ligand)
chain: AQVGTNKELCCLVYTSWQIPQKFIVDYSETSPQCPKPGVILLTKRGRQICADPNKKWVQKYISDLKLNA
B8: P1156_IXORI (other)
chain: ADDDNELFTVQYCGMNCTKDEGGTWTGCTGKKEGCKCYHESGKNYGLCLSTEYTDFSQYGNPSDSEIEAAKPKRSDTLSH
B9: CCL25_HUMAN (ligand)
chain: QGVFEDCCLAYHYPIGWAVLRRAWTYRIQEVSGSCNLPAAIFYLPKRHRKVCGNPKSREVQRAMKLLDARNKVFAKLHHNTQTFQAGPHAVKKLSSGNSKLSSSKFSNPISSSKRNVSLLISANSGL
B10: P672_RHIPU (other)
chain: VCEVSEQEGVGEDNATEDEDYEDFFKPVTCYFANSTVGPLRPPNCTVVCTNNTAWWNDTKSDGGHCYSEYRPEKRTHSREIYNCTIGVCGNGTCIANHTYADCW
B11: CCL3_HUMAN (ligand)
chain: SLAADTPTACCFSYTSRQIPQNFIADYFETSSQCSKPGVIFLTKRSRQVCADPSEEWVQKYVSDLELSA

The target of one test is CCL23_HUMAN. Description: BLI. For orientation: BLI is a label-free optical method that tracks binding on a fibre tip over time.
For another test, the target named is CCL24_HUMAN. Description: BLI.
For the next test, the target named is CCL27_HUMAN. Description: BLI.
The target in another test is CCL14_HUMAN. Description: BLI.
A further test concerns the target CCL7_HUMAN. Description: BLI.
For another test, the target named is CCL3L1_HUMAN. Description: BLI.
The target of the next test is CCL4L1_HUMAN. Description: BLI.
Another test addresses CCL13_HUMAN. Description: BLI.
A further test concerns the target CCL16_HUMAN. Description: BLI.
The target of the test “CCL22_HUMAN” is B2. Description: BLI.
A further test concerns the target CCL11_HUMAN (human, UniProt P51671 24-97). Description: BLI.
In the next test the target is T1, CCL5_HUMAN. Description: BLI.
In a further test the target is T2, CCL17_HUMAN. Description: BLI.
For the next test, the target named is CCL2_HUMAN (human, UniProt P13500 24-99). Description: BLI.
CCL2_HUMAN, sequence (P13500 24-99): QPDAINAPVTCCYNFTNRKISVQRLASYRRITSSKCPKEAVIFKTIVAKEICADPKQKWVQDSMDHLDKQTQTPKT
A further test has as its target T3, CCL19_HUMAN. Description: BLI.
The target of the next test is T4, CCL4. Description: BLI.
The next test deals with T5, CCL15_HUMAN. Description: BLI.
The test “CCL3_HUMAN” concerns the target B11. Description: BLI.
The test “CCL18_HUMAN” deals with B7. Description: BLI.
The target of a further test is T6, CCL8_HUMAN. Description: BLI.
Test [1] deals with EVASIN4. Description: -; previously described evasin.
The target of the next test is CCL21_HUMAN. Description: BLI.
For the next test, the target named is CCL20_HUMAN (human, UniProt P78556 27-96). Description: BLI.
CCL20_HUMAN, sequence (P78556 27-96): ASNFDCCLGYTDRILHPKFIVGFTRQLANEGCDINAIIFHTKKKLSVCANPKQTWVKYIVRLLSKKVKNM
The next test deals with T7, CCL1_HUMAN. Description: BLI.
The target of a further test is EVASIN1. Description: -; previously described evasin.
The target of test [2] is CXCL3_HUMAN. Description: BLI.
Test [3] has as its target CXCL1_HUMAN. Description: BLI.
Test [4] deals with EVASIN4. Description: -; previously described evasin. The source holds these as a separate data set.
A further test has as its target CXCL8_HUMAN (human, UniProt P10145 28-99). Description: BLI.
Test [5] has as its target CXCL1_HUMAN. Description: BLI. This is another data set of the same source.
Test [6] addresses CXCL3_HUMAN. Description: BLI. The source holds these as a separate data set.

CCL11_HUMAN, sequence (P51671 24-97): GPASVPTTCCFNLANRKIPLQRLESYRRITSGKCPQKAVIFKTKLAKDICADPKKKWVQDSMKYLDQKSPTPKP
CXCL8_HUMAN, sequence (P10145 28-99): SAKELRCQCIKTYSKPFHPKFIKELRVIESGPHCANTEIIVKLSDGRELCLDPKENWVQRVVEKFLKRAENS

The term Kd denotes the free concentration of one partner at which half of the binding sites on the other are occupied at equilibrium, for simple one-to-one binding. Low values mean a tighter complex, high ones a looser complex. B1: the Kd in the test with CCL23_HUMAN turned out to be 5.58 nM; with CCL24_HUMAN, 6.54 nM; with CCL27_HUMAN, 38.9 nM; with CCL14_HUMAN it was 0.43 nM; with CCL7_HUMAN, 0.514 nM; in the test with CCL3L1_HUMAN, 1.4 nM. Besides, the Kd is 0.827 nM with CCL4L1_HUMAN; 0.419 nM in the test with CCL13_HUMAN; 1.28 nM with CCL16_HUMAN; 3.97 nM in the test with CCL22_HUMAN; 3.43 nM with CCL11_HUMAN; 1.47 nM in the test with CCL5_HUMAN. Besides, the Kd worked out at 7.66 nM in the test with CCL17_HUMAN; 12.2 nM with CCL2_HUMAN; 14.4 nM with CCL19_HUMAN; 5.82 nM in the test with CCL4; 159 nM in the test with CCL15_HUMAN; 1.08 nM with CCL3_HUMAN. Also, the Kd was 0.209 nM in the test with CCL18_HUMAN and 8.79 nM with CCL8_HUMAN.

In the test with EVASIN4 [1], B2 registered a Kd of 0.43 nM.

For the molecule B3, the Kd with CCL23_HUMAN turned out to be 6.62 nM; in the test with CCL24_HUMAN, 7.39 nM; with CCL27_HUMAN it was 15.1 nM; in the test with CCL14_HUMAN, 0.816 nM; with CCL7_HUMAN, 8.66 nM; with CCL3L1_HUMAN, 9.61 nM. For the same molecule, the dissociation constant (Kd) with CCL4L1_HUMAN was 35.4 nM; with CCL13_HUMAN, 0.788 nM; with CCL16_HUMAN, 0.926 nM; in the test with CCL21_HUMAN it was 6.54 nM; with CCL22_HUMAN, 22.3 nM; with CCL11_HUMAN, 6.03 nM. Moreover, the Kd worked out at 1.74 nM with CCL5_HUMAN; 0.734 nM with CCL17_HUMAN; 0.592 nM with CCL19_HUMAN; 8.34 nM in the test with CCL20_HUMAN; 15.3 nM with CCL4; 5.05 nM with CCL15_HUMAN. For the same molecule, the Kd in the test with CCL3_HUMAN is 5.3 nM; with CCL1_HUMAN, 21.3 nM; in the test with CCL18_HUMAN, 0.00501 nM; with CCL8_HUMAN, 21.9 nM.

The molecule B4 gave a Kd with EVASIN1 of 0.5 nM.

As for B5, the Kd with CXCL3_HUMAN [2] turned out to be 270 nM; with CXCL1_HUMAN [3], 24 nM.

For B6, the Kd stood at 40.8 nM with CCL24_HUMAN; 61.4 nM in the test with CCL7_HUMAN; 45.8 nM with CCL3L1_HUMAN; 20.6 nM with CCL4L1_HUMAN; 89 nM with CCL13_HUMAN; 44.8 nM in the test with CCL16_HUMAN. In addition, the Kd with CCL11_HUMAN was 8 nM; with CCL5_HUMAN, 3.52 nM; in the test with CCL2_HUMAN, 16.8 nM; with CCL4, 7.47 nM; in the test with CCL3_HUMAN it was 8.9 nM; in the test with CCL1_HUMAN, 8.32 nM. Moreover, the Kd with CCL18_HUMAN was 431 nM; with CCL8_HUMAN, 6.53 nM.

Regarding B7, the Kd was determined as 3 nM with EVASIN1 and 0.03 nM in the test with EVASIN4 [4].

As for B8, the Kd was 4.6 nM with CXCL8_HUMAN, 3.25 nM in the test with CXCL1_HUMAN [5] and 81 nM with CXCL3_HUMAN [6].

In turn, B9 yielded a Kd with EVASIN4 [1] of 69.6 nM.

B10: the Kd worked out at 10 nM with CCL23_HUMAN; 5.5 nM with CCL14_HUMAN; 16.1 nM with CCL7_HUMAN; 2.7 nM with CCL3L1_HUMAN; 3.29 nM with CCL16_HUMAN; 9.09 nM with CCL2_HUMAN. Further, the values for the dissociation constant Kd with CCL15_HUMAN, with CCL3_HUMAN and with CCL8_HUMAN were 31.5 nM, 2.6 nM and 3.7 nM, respectively.

B11: the Kd is 0.1 nM with EVASIN1 and 0.06 nM with EVASIN4 [4].
